Here are results for four molecules from patent US20230052369A1 (Zymeworks, published 2023).

Assay [1] deals with T1, full-length human FRα, on 293E cells (human, UniProt P15328 25-234).
T1 construct: also called folate receptor alpha; FOLR1
The experiment in a line: flow cytometry, 293E cells expressing FRα. A general note: A flow cytometer gives signals particle by particle.
Method: Antibodies were diluted in 50 μl FB (PBS 2% FCS) 1:3 from stock in wells of a 96 V-well plate, and cells added on top. The cells were then left on ice for 30 minutes for the antibodies to bind. The cells were then washed twice in FB, and incubated in 50 μl FB containing 2 μg/ml goat anti-human Alexa647 antibody (Jackson Immunoresearch). The cells were then left on ice for a further 20 minutes, washed twice in FB, resuspended in 100 μl FB and analyzed on a BD Fortessa™ X20. The subsequent data files were analyzed using FlowJo™ and Prism 7 (GraphPad).

The target in assay [2] is T2, purified human monomeric 4-1BB (human, UniProt Q07011 24-186).
T2 construct: the assay used the 4-1BB part released by Factor Xa with the Fc removed; also called h4-1BB; human 4-1BB
The assay is described as follows: SPR, Ab captured, monomeric 4-1BB injected.
Method: The anti-human Fc surface was prepared on a CMS Series S sensorchip by standard amine coupling methods as described by the manufacturer (GE Healthcare). Briefly, immediately after EDC/NHS activation, a 25 μg/mL solution of anti-human Fc in 10 mM NaOAc pH 4.5 was injected at a flow rate of 10 μL/min for 420 s until approximately 2000 resonance units (RUs) were immobilized on all four flow cells. The remaining active groups were quenched by a 420 s injection of 1M ethanolamine at 10 μL/min.
Antibodies for analysis were captured onto the anti-Fc surface by injecting 5 μg/mL solutions at a flow rate of 10 μL/min for 60 s. Using single-cycle kinetics, five concentrations of a two-fold dilution series of 4-1BB starting at 40 nM (for both supernatant and purified antibody runs) with a blank buffer control were sequentially injected at 40 μL/min for 180 s with a 600 s dissociation phase, resulting in a set of sensorgrams with a buffer blank reference. Experiments were performed at a constant temperature of 25° C. The anti-human Fc surfaces were regenerated to prepare for the next injection cycle by one pulse of 10 mM Glycine/HCl pH 1.5 for 120 s at 40 μL/min. Blank-subtracted sensorgrams were analyzed using Biacore™ T200 Evaluation Software v3.0. The blank-subtracted sensorgrams were then fit to the 1:1 Langmuir binding model.
Variants purified by SEC were assessed for binding to human 4-1BB.

T1 sequence (P15328 25-234 limits assumed): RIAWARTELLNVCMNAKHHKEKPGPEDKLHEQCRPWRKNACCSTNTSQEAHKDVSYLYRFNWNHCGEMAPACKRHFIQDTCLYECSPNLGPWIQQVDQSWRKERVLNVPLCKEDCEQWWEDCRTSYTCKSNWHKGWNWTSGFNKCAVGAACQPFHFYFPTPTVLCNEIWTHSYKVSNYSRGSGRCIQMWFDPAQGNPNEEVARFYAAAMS
T2 sequence (Q07011 other isoform, or with tags, fused parts or gaps limits assumed): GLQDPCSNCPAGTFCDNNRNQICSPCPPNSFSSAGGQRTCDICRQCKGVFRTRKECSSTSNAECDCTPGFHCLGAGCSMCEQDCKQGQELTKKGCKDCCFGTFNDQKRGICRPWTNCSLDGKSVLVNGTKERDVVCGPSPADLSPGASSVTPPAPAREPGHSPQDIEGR

B1: v23660 (bispecific antibody, human IgG1, kappa, L234A L235A)
heavy 1: QVQLKESGPGLVAPSQSLSITCTVSGFSLTSYAISWVRQPPGKGLEWLGVIWPGGGTNYNSALKSRLSISKDNSKSQVFLKMNSLQTDDTARYYCARGTGTWYFDVWGAGTTVTVSSASTKGPSVFPLAPSSKSTSGGTAALGCLVKDYFPEPVTVSWNSGALTSGVHTFPAVLQSSGLYSLSSVVTVPSSSLGTQTYICNVNHKPSNTKVDKKVEPKSCDKTHTCPPCPAPEAAGGPSVFLFPPKPKDTLMISRTPEVTCVVVSVSHEDPEVKFNWYVDGVEVHNAKTKPREEQYNSTYRVVSVLTVLHQDWLNGKEYKCKVSNKALPAPIEKTISKAKGQPREPQVYVYPPSRDELTKNQVSLTCLVKGFYPSDIAVEWESNGQPENNYKTTPPVLDSDGSFALVSKLTVDKSRWQQGNVFSCSVMHEALHNHYTQKSLSLSPGGGGGDIVMTQTPASVEAAVGGTVTIKCQASQSIYSSLAWYQQKPGQSPKLLIYDASHLASGVPSRFSGSRYGTEFTLTISGVQCDDAATYYCQGGWYSSAATYVPNTFGGGTEVVVKGGGGSGGGGSGGGGSQEQLVESGGGLVQPEGSLTLTCKASGFTISNNYYMCWVRQAPGKGLEWIACIYGGISGRTYYASWAKGRFTISKTSSTTVTLQMTSLTAADTATYFCVRGYVGTSNLWGPGTLVTVSS
heavy 2: QVQLKESGPGLVAPSQSLSITCTVSGFSLTSYAISWVRQPPGKGLEWLGVIWPGGGTNYNSALKSRLSISKDNSKSQVFLKMNSLQTDDTARYYCARGTGTWYFDVWGAGTTVTVSSASTKGPSVFPLAPSSKSTSGGTAALGCLVKDYFPEPVTVSWNSGALTSGVHTFPAVLQSSGLYSLSSVVTVPSSSLGTQTYICNVNHKPSNTKVDKKVEPKSCDKTHTCPPCPAPEAAGGPSVFLFPPKPKDTLMISRTPEVTCVVVSVSHEDPEVKFNWYVDGVEVHNAKTKPREEQYNSTYRVVSVLTVLHQDWLNGKEYKCKVSNKALPAPIEKTISKAKGQPREPQVYVLPPSRDELTKNQVSLLCLVKGFYPSDIAVEWESNGQPENNYLTWPPVLDSDGSFFLYSKLTVDKSRWQQGNVFSCSVMHEALHNHYTQKSLSLSPG
light: DIQMTQTTSSLSASLGDRVTISCSASQGISNYLNWYQQKPDGTVKLLIYYTSSLHSGVPSRFSGSGSGTDYSLTISNLEPEDIATYYCQQYSDLPWTFGGGTKLEIKRTVAAPSVFIFPPSDEQLKSGTASVVCLLNNFYPREAKVQWKVDNALQSGNSQESVTEQDSKDSTYSLSSTLTLSKADYEKHKVYACEVTHQGLSSPVTKSFNRGEC
notes: also called 6B3 x 8K22 (VLVH) 2x1
As for B1, in assay [1], the binding result is given as “binds”. In assay [2], this molecule had a dissociation constant Kd of 364 nM.

B2: v23651 (bispecific antibody, human IgG1, kappa, L234A L235A)
heavy 1: QVQLKESGPGLVAPSQSLSITCTVSGFSLTTYAISWVRQPPGKGLEWLGIIWPGGGTNYNSALKSRLSISKDNSRSQVFLKMNSLQTDDTARYYCARGAGTWYFDVWGAGTTVTVSSASTKGPSVFPLAPSSKSTSGGTAALGCLVKDYFPEPVTVSWNSGALTSGVHTFPAVLQSSGLYSLSSVVTVPSSSLGTQTYICNVNHKPSNTKVDKKVEPKSCDKTHTCPPCPAPEAAGGPSVFLFPPKPKDTLMISRTPEVTCVVVSVSHEDPEVKFNWYVDGVEVHNAKTKPREEQYNSTYRVVSVLTVLHQDWLNGKEYKCKVSNKALPAPIEKTISKAKGQPREPQVYVYPPSRDELTKNQVSLTCLVKGFYPSDIAVEWESNGQPENNYKTTPPVLDSDGSFALVSKLTVDKSRWQQGNVFSCSVMHEALHNHYTQKSLSLSPGGGGGQVQLVQSGAEVVKPGASVKISCKASGYTFTGYFMNWVKQSPGQSLEWIGRIHPYDGDTFYNQKFQGKATLTVDKSSNTAHMELLSLTSEDFAVYYCTRYDGSRAMDYWGQGTTVTVSSGGGGSGGGGSGGGGSDIVLTQSPLSLAVSLGQPAIISCKASQSVSFAGTSLMHWYHQKPGQQPRLLIYRASNLEAGVPDRFSGSGSKTDFTLTISPVEAEDAATYYCQQSREYPYTFGGGTKLEIK
heavy 2: QVQLKESGPGLVAPSQSLSITCTVSGFSLTTYAISWVRQPPGKGLEWLGIIWPGGGTNYNSALKSRLSISKDNSRSQVFLKMNSLQTDDTARYYCARGAGTWYFDVWGAGTTVTVSSASTKGPSVFPLAPSSKSTSGGTAALGCLVKDYFPEPVTVSWNSGALTSGVHTFPAVLQSSGLYSLSSVVTVPSSSLGTQTYICNVNHKPSNTKVDKKVEPKSCDKTHTCPPCPAPEAAGGPSVFLFPPKPKDTLMISRTPEVTCVVVSVSHEDPEVKFNWYVDGVEVHNAKTKPREEQYNSTYRVVSVLTVLHQDWLNGKEYKCKVSNKALPAPIEKTISKAKGQPREPQVYVLPPSRDELTKNQVSLLCLVKGFYPSDIAVEWESNGQPENNYLTWPPVLDSDGSFFLYSKLTVDKSRWQQGNVFSCSVMHEALHNHYTQKSLSLSPG
light: DIQMTQSTSSLSASVGDRVTISCSASQGISNYLNWYQQKPDGTVKLLIYYTSSLHSGVPSRFSGSGSGTDYSLTISNLEPEDIATYYCQQYSKFPWTFGGGTKLEIKRTVAAPSVFIFPPSDEQLKSGTASVVCLLNNFYPREAKVQWKVDNALQSGNSQESVTEQDSKDSTYSLSSTLTLSKADYEKHKVYACEVTHQGLSSPVTKSFNRGEC
notes: also called 1C8 x Mirvetuximab (scFv) 2x1
On to B2, for which the binding result in assay [1] was “binds”.

B3: v23656 (bispecific antibody, human IgG1, kappa, L234A L235A)
heavy 1: QVQLKESGPGLVAPSQSLSITCTVSGFSLTTYAISWVRQPPGKGLEWLGIIWPGGGTNYNSALKSRLSISKDNSRSQVFLKMNSLQTDDTARYYCARGAGTWYFDVWGAGTTVTVSSASTKGPSVFPLAPSSKSTSGGTAALGCLVKDYFPEPVTVSWNSGALTSGVHTFPAVLQSSGLYSLSSVVTVPSSSLGTQTYICNVNHKPSNTKVDKKVEPKSCDKTHTCPPCPAPEAAGGPSVFLFPPKPKDTLMISRTPEVTCVVVSVSHEDPEVKFNWYVDGVEVHNAKTKPREEQYNSTYRVVSVLTVLHQDWLNGKEYKCKVSNKALPAPIEKTISKAKGQPREPQVYVYPPSRDELTKNQVSLTCLVKGFYPSDIAVEWESNGQPENNYKTTPPVLDSDGSFALVSKLTVDKSRWQQGNVFSCSVMHEALHNHYTQKSLSLSPGGGGGDIVMTQTPASVEAAVGGTVTIKCQASQSIYSSLAWYQQKPGQSPKLLIYDASHLASGVPSRFSGSRYGTEFTLTISGVQCDDAATYYCQGGWYSSAATYVPNTFGGGTEVVVKGGGGSGGGGSGGGGSQEQLVESGGGLVQPEGSLTLTCKASGFTISNNYYMCWVRQAPGKGLEWIACIYGGISGRTYYASWAKGRFTISKTSSTTVTLQMTSLTAADTATYFCVRGYVGTSNLWGPGTLVTVSS
heavy 2: QVQLKESGPGLVAPSQSLSITCTVSGFSLTTYAISWVRQPPGKGLEWLGIIWPGGGTNYNSALKSRLSISKDNSRSQVFLKMNSLQTDDTARYYCARGAGTWYFDVWGAGTTVTVSSASTKGPSVFPLAPSSKSTSGGTAALGCLVKDYFPEPVTVSWNSGALTSGVHTFPAVLQSSGLYSLSSVVTVPSSSLGTQTYICNVNHKPSNTKVDKKVEPKSCDKTHTCPPCPAPEAAGGPSVFLFPPKPKDTLMISRTPEVTCVVVSVSHEDPEVKFNWYVDGVEVHNAKTKPREEQYNSTYRVVSVLTVLHQDWLNGKEYKCKVSNKALPAPIEKTISKAKGQPREPQVYVLPPSRDELTKNQVSLLCLVKGFYPSDIAVEWESNGQPENNYLTWPPVLDSDGSFFLYSKLTVDKSRWQQGNVFSCSVMHEALHNHYTQKSLSLSPG
light: DIQMTQSTSSLSASVGDRVTISCSASQGISNYLNWYQQKPDGTVKLLIYYTSSLHSGVPSRFSGSGSGTDYSLTISNLEPEDIATYYCQQYSKFPWTFGGGTKLEIKRTVAAPSVFIFPPSDEQLKSGTASVVCLLNNFYPREAKVQWKVDNALQSGNSQESVTEQDSKDSTYSLSSTLTLSKADYEKHKVYACEVTHQGLSSPVTKSFNRGEC
notes: Two 4-1BB Fabs, one FRα scFv at the C-terminus of one heavy chain; also called 1C8 x 8K22 (VLVH) 2x1
Turning to B3, the binding result in assay [1] is “binds”. Further, the Kd in assay [2] is 480 nM.

B4: v23662 (bispecific antibody, human IgG1, kappa, L234A L235A)
heavy 1: QVQLKQSGPGLVQPSQSLSITCTVSGFSLTSYGVHWVRQSPGKGLEWLGVIWSGGSTDYNAAFISRLSISKDNSKSQVFFKMNSLQADDTAIYYCARNPLTATVMDYWGQGTSVTVSSASTKGPSVFPLAPSSKSTSGGTAALGCLVKDYFPEPVTVSWNSGALTSGVHTFPAVLQSSGLYSLSSVVTVPSSSLGTQTYICNVNHKPSNTKVDKKVEPKSCDKTHTCPPCPAPEAAGGPSVFLFPPKPKDTLMISRTPEVTCVVVSVSHEDPEVKFNWYVDGVEVHNAKTKPREEQYNSTYRVVSVLTVLHQDWLNGKEYKCKVSNKALPAPIEKTISKAKGQPREPQVYVYPPSRDELTKNQVSLTCLVKGFYPSDIAVEWESNGQPENNYKTTPPVLDSDGSFALVSKLTVDKSRWQQGNVFSCSVMHEALHNHYTQKSLSLSPGGGGGDIVMTQTPSSVSAAVGGTVTIKCQASQTIGSSLAWYQQKPGQPPKLLIYRASTLASGVSSRFRGSGSGTEYTLTISDLECADAATYYCQWTDYGYIYIWAFGGGTEVVVKGGGGSGGGGSGGGGSQEQLVESGGGLVQPEGSLTLTCTASKFSFSSLYYMCWVRQAPGKGLEWIACVYGGSSGNTYYASWAKGRFTISKASSTTVTLQLTSLTAADTATYFCARFDVDGSGFNLWGPGTLVTVSS
heavy 2: QVQLKQSGPGLVQPSQSLSITCTVSGFSLTSYGVHWVRQSPGKGLEWLGVIWSGGSTDYNAAFISRLSISKDNSKSQVFFKMNSLQADDTAIYYCARNPLTATVMDYWGQGTSVTVSSASTKGPSVFPLAPSSKSTSGGTAALGCLVKDYFPEPVTVSWNSGALTSGVHTFPAVLQSSGLYSLSSVVTVPSSSLGTQTYICNVNHKPSNTKVDKKVEPKSCDKTHTCPPCPAPEAAGGPSVFLFPPKPKDTLMISRTPEVTCVVVSVSHEDPEVKFNWYVDGVEVHNAKTKPREEQYNSTYRVVSVLTVLHQDWLNGKEYKCKVSNKALPAPIEKTISKAKGQPREPQVYVLPPSRDELTKNQVSLLCLVKGFYPSDIAVEWESNGQPENNYLTWPPVLDSDGSFFLYSKLTVDKSRWQQGNVFSCSVMHEALHNHYTQKSLSLSPG
light: DIVMTQSQKFMSTSVGDRVSVTCKASQNVGTNVAWYQQKPGQSRTVLIYSASYRHSGVPDRFTGSGSGTDFTLTISNVQSEDLAEYFCQQYNSYPLTFGTGTKLELKRTVAAPSVFIFPPSDEQLKSGTASVVCLLNNFYPREAKVQWKVDNALQSGNSQESVTEQDSKDSTYSLSSTLTLSKADYEKHKVYACEVTHQGLSSPVTKSFNRGEC
notes: also called 2E8 x 1H06 (VLVH) 2x1
For the molecule B4, the affinity in assay [2], expressed as Kd, was 155 nM.

By Kd is commonly meant the equilibrium constant for the complex coming apart.
